This test addresses afTMEM16 scramblase from Aspergillus fumigatus (Aspergillus fumigatus). The test is described as follows: cryo-EM structure; afTMEM16 in MSP1E3 nanodiscs of 3 POPE:1 POPG; three samples: 0.5 mM Ca2+, Ca2+-free (5 mM EDTA), 0.5 mM Ca2+ with 5 mole% C24:0 ceramide; buffer D (150 mM KCl, 50 mM Tris pH 8.0); maps refined in C1 and C2.

As usually defined, the stoichiometry N is the number of molecules, sites or subunits per partner or assembly. In the case of “afTMEM16 scramblase from Aspergillus fumigatus (natural protein)”, the stoichiometry N worked out at 2.

The values are drawn from article PMC6355197.
